{"source": "patent US8637016", "target": "EphA3 antigen (Homo sapiens (Human)) (UniProt P29320)", "sequence (P29320 21-541 limits assumed, form in doubt)": "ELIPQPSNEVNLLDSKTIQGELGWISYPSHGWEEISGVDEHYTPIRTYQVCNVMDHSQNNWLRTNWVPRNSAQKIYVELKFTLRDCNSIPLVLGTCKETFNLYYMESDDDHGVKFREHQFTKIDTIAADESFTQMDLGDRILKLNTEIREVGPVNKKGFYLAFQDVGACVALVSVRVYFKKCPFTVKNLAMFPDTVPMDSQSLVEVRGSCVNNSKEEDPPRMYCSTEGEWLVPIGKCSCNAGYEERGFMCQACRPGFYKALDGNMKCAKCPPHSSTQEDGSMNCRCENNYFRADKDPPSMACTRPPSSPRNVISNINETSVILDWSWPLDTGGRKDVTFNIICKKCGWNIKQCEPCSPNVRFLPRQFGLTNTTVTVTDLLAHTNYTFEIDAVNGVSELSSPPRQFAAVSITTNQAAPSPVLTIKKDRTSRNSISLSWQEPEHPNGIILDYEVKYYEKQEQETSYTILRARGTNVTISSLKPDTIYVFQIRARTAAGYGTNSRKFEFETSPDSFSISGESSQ", "assay": "ELISA on EphA3 antigen", "data": [{"substance": "monoclonal antibody IIIA4", "values": [{"measurement": "AFFINITY", "result": 2.5, "unit": "nM"}]}]}
